Experimental data reported in article PMC6138693, “Structural determinants of Rab11 activation by the guanine nucleotide exchange factor SH3BP5” (Nature Communications, 2018).

What was measured:
[1] = target: Rab11A K13N (human) (UniProt P62491)
[2] = target: Rab11A K41P (human) (UniProt P62491)
[3] = target: Rab11A L38P (human) (UniProt P62491)
[4] = target: Rab11A S40F (human) (UniProt P62491)
[5] = target: T1, SH3BP5 (31–455), N-terminally truncated (UniProt O60239 31-455); experiment: HDX-MS; 0.4 µM C-terminally His-tagged Rab11A (1–211) and 0.4 µM SH3BP5 (31–455), with or without 0.2 mg/mL nickelated lipid vesicles; D2O buffer 10 mM HEPES pH 7.5, 200 mM NaCl; 3, 30, 300, 3000 s at room temperature; conditions: both partners purified
T1 construct: also called N-terminally truncated SH3BP5 (31–455); N-terminally truncated variant of SH3BP5; source: E. coli BL21 C41, purified (GSTrap, TEV cleavage, HiTrap Q, SEC); not shown: GST, N-terminal, cleaved
T1 sequence (looked up): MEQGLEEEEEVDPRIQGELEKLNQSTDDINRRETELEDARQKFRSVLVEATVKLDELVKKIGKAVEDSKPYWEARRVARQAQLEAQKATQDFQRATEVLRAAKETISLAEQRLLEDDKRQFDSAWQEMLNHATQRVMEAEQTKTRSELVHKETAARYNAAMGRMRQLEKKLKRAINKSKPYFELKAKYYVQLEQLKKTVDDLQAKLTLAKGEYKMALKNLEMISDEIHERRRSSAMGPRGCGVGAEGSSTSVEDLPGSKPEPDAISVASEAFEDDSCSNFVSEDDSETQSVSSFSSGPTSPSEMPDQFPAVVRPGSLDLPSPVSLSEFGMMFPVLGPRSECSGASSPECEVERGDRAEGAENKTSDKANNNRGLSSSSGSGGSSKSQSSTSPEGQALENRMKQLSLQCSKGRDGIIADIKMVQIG

[6] = target: T2, SH3BP5 (1–265), crystal construct (N-terminal GEF domain of SH3BP5) (UniProt O60239 1-265); experiment: SEC; SH3BP5 truncation and Rab11(Q70L) mixed at an equimolar amount, 5 min at 4 °C, 20 mM EDTA (pH 7.5) for 1 h at 4 °C, loaded onto Superdex 200 10/300; conditions: both partners purified
T2 construct: A SeMet form made in E. coli B834 was used for phasing; source: E. coli BL21 C41, purified (GSTrap, TEV cleavage, HiTrap Q, SEC); not shown: GST, N-terminal, cleaved
T2 sequence (looked up): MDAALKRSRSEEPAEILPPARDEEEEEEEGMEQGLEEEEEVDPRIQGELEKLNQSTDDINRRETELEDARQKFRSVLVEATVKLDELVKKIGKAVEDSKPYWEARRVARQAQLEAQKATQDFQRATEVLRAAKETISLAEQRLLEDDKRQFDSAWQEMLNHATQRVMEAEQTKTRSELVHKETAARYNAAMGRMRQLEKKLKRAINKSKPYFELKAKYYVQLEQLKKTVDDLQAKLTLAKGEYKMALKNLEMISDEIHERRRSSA

[7] = target: T1, SH3BP5 (31–455), N-terminally truncated; experiment: HDX-MS; 1.0 µM Rab11(Q70L) and 1.0 µM SH3BP5 (31–455), incubated on ice with 20 µM EDTA for 1 h; D2O buffer 10 mM HEPES pH 7.5, 500 mM NaCl; 3 s at 1 °C and 3, 30, 300 s at room temperature; conditions: both partners purified

Chain of Rab11A K13N (human) (P62491 whole entry K13N): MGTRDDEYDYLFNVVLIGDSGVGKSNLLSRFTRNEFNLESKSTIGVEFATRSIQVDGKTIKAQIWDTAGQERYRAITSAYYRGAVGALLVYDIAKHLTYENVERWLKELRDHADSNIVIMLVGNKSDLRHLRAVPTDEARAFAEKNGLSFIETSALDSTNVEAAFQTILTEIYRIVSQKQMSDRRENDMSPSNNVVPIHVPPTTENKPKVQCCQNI

B1: SH3BP5 (1–455), full-length (natural protein)
chain: MDAALKRSRSEEPAEILPPARDEEEEEEEGMEQGLEEEEEVDPRIQGELEKLNQSTDDINRRETELEDARQKFRSVLVEATVKLDELVKKIGKAVEDSKPYWEARRVARQAQLEAQKATQDFQRATEVLRAAKETISLAEQRLLEDDKRQFDSAWQEMLNHATQRVMEAEQTKTRSELVHKETAARYNAAMGRMRQLEKKLKRAINKSKPYFELKAKYYVQLEQLKKTVDDLQAKLTLAKGEYKMALKNLEMISDEIHERRRSSAMGPRGCGVGAEGSSTSVEDLPGSKPEPDAISVASEAFEDDSCSNFVSEDDSETQSVSSFSSGPTSPSEMPDQFPAVVRPGSLDLPSPVSLSEFGMMFPVLGPRSECSGASSPECEVERGDRAEGAENKTSDKANNNRGLSSSSGSGGSSKSQSSTSPEGQALENRMKQLSLQCSKGRDGIIADIKMVQIG
[1]
  SH3BP5-mediated GEF activity (Mant-GDP release, kcat/Km), mutant compared with WT Rab11A (fold decrease): > 100
[2]
  SH3BP5-mediated GEF activity (Mant-GDP release, kcat/Km), mutant compared with WT Rab11A (fold decrease): > 100
[3]
  SH3BP5-mediated GEF activity (Mant-GDP release, kcat/Km), mutant compared with WT Rab11A (fold decrease): > 100
[4]
  SH3BP5-mediated GEF activity (Mant-GDP release, kcat/Km), mutant compared with WT Rab11A (fold decrease): > 100

B2: WT Rab11A (1–211, C-term his) (natural protein, human, UniProt P62491 1-211, looked up)
chain: MGTRDDEYDYLFKVVLIGDSGVGKSNLLSRFTRNEFNLESKSTIGVEFATRSIQVDGKTIKAQIWDTAGQERYRAITSAYYRGAVGALLVYDIAKHLTYENVERWLKELRDHADSNIVIMLVGNKSDLRHLRAVPTDEARAFAEKNGLSFIETSALDSTNVEAAFQTILTEIYRIVSQKQMSDRRENDMSPSNNVVPIHVPPTTENKPKVQ
notes: Rab11A, residues 1-211, wild type; The limits 1-211 are printed for the HDX-MS experiment; In GEF assays it was loaded with Mant-GDP; also called Rab11A-His6; Rab11a-His6; source: E. coli BL21 C41, purified (GSTrap, TEV cleavage, HiTrap Q, SEC); not shown: GST, N-terminal, cleaved; His6, C-terminal, kept
[5]
  binding result: binds

B3: Rab11A Q70L (1–213) (natural protein, human, UniProt P62491 1-213, looked up)
chain: MGTRDDEYDYLFKVVLIGDSGVGKSNLLSRFTRNEFNLESKSTIGVEFATRSIQVDGKTIKAQIWDTAGLERYRAITSAYYRGAVGALLVYDIAKHLTYENVERWLKELRDHADSNIVIMLVGNKSDLRHLRAVPTDEARAFAEKNGLSFIETSALDSTNVEAAFQTILTEIYRIVSQKQMSDRRENDMSPSNNVVPIHVPPTTENKPKVQCC
notes: called full-length in the results; dominant active switch II mutant Q70L; Nucleotide removed with EDTA before complex formation; The limits 1-213 are printed for the crystal only; A SeMet form was used for phasing; also called Rab11(Q70L); full-length Q70L Rab11A; source: E. coli BL21 C41, purified (GSTrap, TEV cleavage, HiTrap Q, SEC); not shown: GST, N-terminal, cleaved
[6]
  binding result: binds
[7]
  binding result: binds
